# Experimental data reported in patent US20240307497A1, “ADIPONECTIN ALONE OR IN COMBINATION WITH EXTRACORPOREAL PHOTOPHERESIS (ECP) FOR IMMUNE RELATED ADVERSE EVENTS OF IMMUNE CHECKPOINT INHIBITORS” (Mallinckrodt Pharmaceuticals Ireland Limited, priority 2022, published 2024).
# “Also recorded” adds a separate entry of the source.
# B1: adiponectin: recombinant murine adiponectin (GenScript); protein hormone and adipokine (protein, UniProt Q60994 18-247, looked up)
# Adiponectin: EDDVTTTEELAPALVPPPKGTCAGWMAGIPGHPGHNGTPGRDGRDGTPGEKGEKGDAGLLGPKGETGDVGMTGAEGPRGFPGTPGRKGEPGEAAYVYRSAFSVGLETRVTVPNVPIRFTKIFYNQQNHYDGSTGKFYCNIPGLYYFSYHITVYMKDVKVSLFKKDKAVLFTYDQYQEKNVDQASGSVLLHLEVGDQVWLQVYGDGDHNGLYADNVNDSTFTGFLLYHDTN
# Key:
# [1] = system: DSS/anti-PD1-induced colitis; experiment: DSS/anti-PD1-induced colitis model; type: in vivo, mice; details: for ICI-induced colonic inflammation, combination with ECP: ECP plus agent vs ECP plus vehicle, FIGS. 4i-p; for severity of ICI-induced colitis (bodyweight, colon length, neutrophil and lymphocyte infiltration): monotherapy vs vehicle, daily days 3-7, FIGS. 4a-h
# Experimental: For modeling ECP transplantation in vivo, splenocytes of donor mice were used. Donor animals were treated identically to the respective recipient groups. Spleens were harvested, meshed and erythrocytes were lysed. Splenocytes were resuspended to 3-5×10^6 cells/mL in RPMI, supplemented with 10% FCS and 1% P/S, and treated with 200 ng/mL 8-methoxypsoralen (8-MOP; Uvadex©, Therakos) at 37° C. and 5% CO2 for 30 min. Following incubation, the cells were exposed to UVA light (2 J/cm2) in a calibrated BS-02 irradiation chamber, operated in dose-controlled mode (Opsytec Dr. Gröbel). ECP-treated splenocytes were resuspended in PBS and […] were injected intravenously into recipient mice. Where indicated, PBMCs were treated with ECP comparably to splenocytes and 107 PBMCs were injected intravenously into recipient mice. PBMCs from mouse EDTA-blood were isolated using Ficoll-Paque PREMIUM 1.084 (Cytiva). For ECP-treatment of epithelial cells, 6×10^6 MODE-K cells were seeded onto 10 cm dishes one day before ECP-treatment. The next day, cells were treated with 8-methoxypsoralen and UVA light in a calibrated BS-02 irradiation chamber. Cells were washed with PBS and 2×10^6 ECP-treated MODE-K cells were injected intravenously into recipient mice.
# (§1) For the induction of acute colitis, mice received 3% Dextran Sodium Sulfate (DSS colitis grade, 36-50 kDa; MP Biomedicals) in drinking water from day 0 to day 3, followed by normal drinking water. Mice were injected i.p. with 0.2 mg immune checkpoint inhibitor (ICI) or the respective isotype controls on days 0, 3 and 6 of the experiment. Recipients were transplanted i.v. with 107 ECP-treated donor splenocytes on days 3 and 6. In some experiments, steroid, adiponectin or AdipoRon were applied daily from days 3-7. Arginase-1 inhibitor was applied twice per day from days 4-7. STAT6 or PPARγ inhibitors were applied from day 4-7. Mice were injected with Clodrosomes on days 1, 3, 5 and 7. If not indicated differently, mice were sacrificed in day 8 by retroorbital bleeding to harvest serum and organs which were harvested for histopathological scoring and gene expression analysis.
# ICI treatment consisted of either 0.2 mg anti-PD1 (mouse, clone RMP1-14; Ichorbio) or 0.2 mg anti-CTLA4 (mouse, clone 9D9; Ichorbio) per injection intraperitoneally. Controls were Rat IgG2a Isotype Control (clone 1-1, Ichorbio) and Mouse IgG2b Isotype Control (clone MPC-11, Ichorbio), respectively. […]
# (§2) Colon, liver, skin and lung were harvested, formalin-fixed and paraffin embedded. Sections were stained with H&E and scored by an experienced pathologist, based on histopathological characterization of human irAEs, including lymphocyte and neutrophil infiltration, crypt abscesses, and apoptotic cells on a scale from 0 (absent) to 2 (massive). […]
# [2] = system: DSS/anti-CTLA4-induced colitis; experiment: DSS/anti-CTLA4-induced colitis model; type: in vivo, mice; details: AdipoRon vs vehicle; FIGS. S10a-S10d
# Experimental: as §1, with “If not indicated differently, mice were sacrificed in day 8 by retroorbital bleeding to harvest serum and organs which were harvested for histopathological scoring and gene expression analysis.” left out
# as §2
# For quantification of adiponectin concentrations in murine serum specimen, blood was harvested by retroorbital bleeding and serum was isolated by centrifugation. Adiponectin concentrations were measured using Adiponectin Mouse ELISA Kit (ThermoFisher) at 20,000-fold dilution.
# [3] = system: F4/80^+ macrophages (BMDMs); experiment: Arg1 in BMDMs exposed to recombinant adiponectin or AdipoRon; type: cell-based, mouse; details: increasing concentrations, 48 h, vs vehicle
# Experimental: BMDMs were generated from bone marrow after erythrocyte lysis. Cells were cultured in RPMI supplemented with 10% FCS, 1% P/S and 20 ng/mL rmM-CSF (Peprotech). Culture medium was replaced on days 5 and 6. Cells were used on day 7 with a purity >95%, confirmed by surface CD11b and F4/80 expression. BMDMs (M0) were polarized for 16 h into M1 with 50 ng/mL rmIFNγ (Peprotech) and 20 ng/mL LPS (Sigma), or into M2 with 20 ng/mL rmIL-4 (Peprotech). If indicated, BMDMs were treated with increasing concentrations of recombinant adiponectin/Acrp30 (GenScript) or AdipoRon (MedChemExpress) for 48 h.
# Spleens were isolated, meshed and erythrocytes were lysed. Single cell suspensions of tissues were prepared as described. Viability was analyzed by either Zombie NIR fixable dye (BioLegend) or LIVE/DEAD Fixable Aqua (Invitrogen) staining. Fc receptors were blocked with anti-mouse CD16/CD32 (BioLegend) for 10 min at 4° C., followed by surface staining with fluorochrome-conjugated antibodies for 30 min at 4° C. […] Antigen-specific CD8 T-cells were analyzed after H-2Kb/OVA^257-264 dextramer staining (Immudex). […] All data were acquired on a BD LSR Fortessa (BD Biosciences) and analyzed with FlowJo v10 (TreeStar). […] Data was acquired with a Canto II flow cytometer (BD Biosciences) and analyzed using FACSDiva Software V6 (BD Biosciences).
# [4] = system: DSS/anti-PD1-induced colitis; experiment: Adoptive transfer of adiponectin-treated T-cells into colitis mice; type: in vivo; details: adiponectin-treated vs vehicle-treated T-cells
# Experimental: (§3) Splenic T-cells were isolated from C57BL/6 donors using Pan T-cell isolation kit II (Miltenyi) and activated using anti-CD3/CD28 beads (ThermoScientific) in the presence of 30 U/mL rmIL2 (Peprotech). T-cells were treated with 9 μg/mL recombinant murine adiponectin (GenScript) or vehicle for 72 h. C57BL/6 recipients received 1% DSS (MP Biomedicals) in drinking water from day 0 to day 3, followed by normal drinking water to induce mild colitis. Mice were injected i.p. with 0.2 mg anti-PD1 on day 0, day 3 and day 6 of the experiment. On day 4, activation beads were removed, T-cells were washed and 5×106 T-cells were intravenously injected into colitis animals. Colitis tissue was harvested on day 8. T-cells were stained for CD25 surface expression to determine activation.
# Colon, liver, skin and lung were harvested, formalin-fixed and paraffin embedded. Sections were stained with H&E and scored by an experienced pathologist, based on histopathological characterization of human irAEs, including lymphocyte and neutrophil infiltration, crypt abscesses, and apoptotic cells on a scale from 0 (absent) to 2 (massive). Scoring was done blinded to the experimental group.
# pan T-cells = experiment: T-cell activation with anti-CD3/CD28 beads in the presence of adiponectin; type: cell-based, mouse; details: 72 h, vs vehicle
# Experimental: as §3
# Spleens were isolated, meshed and erythrocytes were lysed. Single cell suspensions of tissues were prepared as described. Viability was analyzed by either Zombie NIR fixable dye (BioLegend) or LIVE/DEAD Fixable Aqua (Invitrogen) staining. […] Antigen-specific CD8 T-cells were analyzed after H-2Kb/OVA^257-264 dextramer staining (Immudex). […] All data were acquired on a BD LSR Fortessa (BD Biosciences) and analyzed with FlowJo v10 (TreeStar). […] Data was acquired with a Canto II flow cytometer (BD Biosciences) and analyzed using FACSDiva Software V6 (BD Biosciences).
Molecule,"ICI-induced colonic inflammation, combination with ECP [1]","severity of ICI-induced colitis (bodyweight, colon length, neutrophil and lymphocyte infiltration) [1]",DSS/anti-CTLA4-induced colitis / intestinal inflammation [2],Arg1 (MFI) in BMDMs [3],colitis severity in recipients of treated T-cells [4],CD25 expression on CD4^+ and CD8^+ T-cells (pan T-cells; 9 μg/mL),FoxP3 expression and CD4^+/CD8^+ T-cell frequencies (pan T-cells)
O=C(COc1ccc(C(=O)c2ccccc2)cc1)NC1CCN(Cc2ccccc2)CC1 [AdipoRon],synergized with ECP to reduce ICI-induced colonic inflammation,effective in anti-PD1-mediated colitis,reduced anti-CTLA-4-induced colitis; also recorded: also in DSS/anti-CTLA4-induced intestinal inflammation,upregulation of immunosuppressive Arg1,–,–,–
B1,synergized with ECP to reduce ICI-induced colonic inflammation,reduce the severity of colitis,–,upregulation of immunosuppressive Arg1,Colitis severity was lower,reduced the expression of CD25,no effect on FoxP3 expression and CD4^+/CD8^+ T-cell frequencies
